# Results reported in patent US20240270846A1 (published 2024).
# Biological target: T1, CD3 epsilon homodimer protein (UniProt P07766 23-126)
# T1 construct: Immobilized on Sensor chip CM4 by amine coupling; construct not described; also called CD3 (CD3 epsilon)
# Assay: SPR Biacore T200, CD3 epsilon homodimer on CM4 chip, antibody as analyte;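 note: Amine-coupled CD3 epsilon homodimer, run at 25 °C in HBS-EP+ buffer, ratio is bound amount of each single-residue H chain variant over that of the parent antibody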
# T1 sequence (P07766 23-126): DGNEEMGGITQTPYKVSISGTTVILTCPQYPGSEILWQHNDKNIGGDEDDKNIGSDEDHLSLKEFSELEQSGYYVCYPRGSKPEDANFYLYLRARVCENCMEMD
row,Binder,ratio of amounts bound (Y/X vs CE115HA000)
1,"CE115HA000 K75R one-arm antibody (antibody, human IgG1, kappa, L234A L235A, N297A, name in Kabat numbering, one-arm antibody (one Fab)) heavy: QVQLVESGGGVVQPGRSLRLSCAASGFTFSNAWMHWVRQAPGKGLEWVAQIKAKSNNYATYYAESVKGRFTISRDDSRNSLYLQMNSLKTEDTAVYYCRYVHYGAYYGVDAWGQGTTVTVSSASTKGPSVFPLAPSSKSTSGGTAALGCLVKDYFPEPVTVSWNSGALTSGVHTFPAVLQSSGLYSLSSVVTVPSSSLGTQTYICNVNHKPSNTKVDKKVEPKSCDKTHTCPPCPAPEAAGGPSVFLFPPKPKDTLMISRTPEVTCVVVDVSHEDPEVKFNWYVDGVEVHNAKTKPREEQYASTYRVVSVLTVLHQDWLNGKEYKCKVSNKALPAPIEKTISKAKGQPREPQVYTLPPSRCELTKNQVSLSCAVKGFYPSDIAVEWESNGQPENNYKTTPPVLDSDGSFFLVSKLTVDKSRWQQGNVFSCSVMHEALHNHYTQKSLSLSPDYKDDDDK EPKSSDKTHTCPPCPAPELLGGPSVFLFPPKPKDTLMISRTPEVTCVVVDVSHEDPEVKFNWYVDGVEVHNAKTKPREEQYNSTYRVVSVLTVLHQDWLNGKEYKCKVSNKALPAPIEKTISKAKGQPREPQVCTLPPSRDELTKNQVSLWCLVKGFYPSDIAVEWESNGQPENNYKTTPPVLDSDGSFFLYSKLTVDKSRWQQGNVFSCSVMHEALHNRYTQKSLSLSP light: DIVMTQSPLSLPVTPGEPASISCRSSQSLVHSNRNTYLHWYQQKPGQAPRLLIYKVSNRFSGVPDRFSGSGSGTDFTLKISRVEAEDVGVYYCGQGTQVPYTFGQGTKLEIKRTVAAPSVFIFPPSDEQLKSGTASVVCLLNNFYPREAKVQWKVDNALQSGNSQESVTEQDSKDSTYSLSSTLTLSKADYEKHKVYACEVTHQGLSSPVTKSFNRGEC",1.01
2,"CE115HA000 K75T one-arm antibody (antibody, human IgG1, kappa, L234A L235A, N297A, name in Kabat numbering, one-arm antibody (one Fab)) heavy: QVQLVESGGGVVQPGRSLRLSCAASGFTFSNAWMHWVRQAPGKGLEWVAQIKAKSNNYATYYAESVKGRFTISRDDSTNSLYLQMNSLKTEDTAVYYCRYVHYGAYYGVDAWGQGTTVTVSSASTKGPSVFPLAPSSKSTSGGTAALGCLVKDYFPEPVTVSWNSGALTSGVHTFPAVLQSSGLYSLSSVVTVPSSSLGTQTYICNVNHKPSNTKVDKKVEPKSCDKTHTCPPCPAPEAAGGPSVFLFPPKPKDTLMISRTPEVTCVVVDVSHEDPEVKFNWYVDGVEVHNAKTKPREEQYASTYRVVSVLTVLHQDWLNGKEYKCKVSNKALPAPIEKTISKAKGQPREPQVYTLPPSRCELTKNQVSLSCAVKGFYPSDIAVEWESNGQPENNYKTTPPVLDSDGSFFLVSKLTVDKSRWQQGNVFSCSVMHEALHNHYTQKSLSLSPDYKDDDDK EPKSSDKTHTCPPCPAPELLGGPSVFLFPPKPKDTLMISRTPEVTCVVVDVSHEDPEVKFNWYVDGVEVHNAKTKPREEQYNSTYRVVSVLTVLHQDWLNGKEYKCKVSNKALPAPIEKTISKAKGQPREPQVCTLPPSRDELTKNQVSLWCLVKGFYPSDIAVEWESNGQPENNYKTTPPVLDSDGSFFLYSKLTVDKSRWQQGNVFSCSVMHEALHNRYTQKSLSLSP light: DIVMTQSPLSLPVTPGEPASISCRSSQSLVHSNRNTYLHWYQQKPGQAPRLLIYKVSNRFSGVPDRFSGSGSGTDFTLKISRVEAEDVGVYYCGQGTQVPYTFGQGTKLEIKRTVAAPSVFIFPPSDEQLKSGTASVVCLLNNFYPREAKVQWKVDNALQSGNSQESVTEQDSKDSTYSLSSTLTLSKADYEKHKVYACEVTHQGLSSPVTKSFNRGEC",0.84
3,"CE115HA000 L78I one-arm antibody (antibody, human IgG1, kappa, L234A L235A, N297A, name in Kabat numbering, one-arm antibody (one Fab)) heavy: QVQLVESGGGVVQPGRSLRLSCAASGFTFSNAWMHWVRQAPGKGLEWVAQIKAKSNNYATYYAESVKGRFTISRDDSKNSIYLQMNSLKTEDTAVYYCRYVHYGAYYGVDAWGQGTTVTVSSASTKGPSVFPLAPSSKSTSGGTAALGCLVKDYFPEPVTVSWNSGALTSGVHTFPAVLQSSGLYSLSSVVTVPSSSLGTQTYICNVNHKPSNTKVDKKVEPKSCDKTHTCPPCPAPEAAGGPSVFLFPPKPKDTLMISRTPEVTCVVVDVSHEDPEVKFNWYVDGVEVHNAKTKPREEQYASTYRVVSVLTVLHQDWLNGKEYKCKVSNKALPAPIEKTISKAKGQPREPQVYTLPPSRCELTKNQVSLSCAVKGFYPSDIAVEWESNGQPENNYKTTPPVLDSDGSFFLVSKLTVDKSRWQQGNVFSCSVMHEALHNHYTQKSLSLSPDYKDDDDK EPKSSDKTHTCPPCPAPELLGGPSVFLFPPKPKDTLMISRTPEVTCVVVDVSHEDPEVKFNWYVDGVEVHNAKTKPREEQYNSTYRVVSVLTVLHQDWLNGKEYKCKVSNKALPAPIEKTISKAKGQPREPQVCTLPPSRDELTKNQVSLWCLVKGFYPSDIAVEWESNGQPENNYKTTPPVLDSDGSFFLYSKLTVDKSRWQQGNVFSCSVMHEALHNRYTQKSLSLSP light: DIVMTQSPLSLPVTPGEPASISCRSSQSLVHSNRNTYLHWYQQKPGQAPRLLIYKVSNRFSGVPDRFSGSGSGTDFTLKISRVEAEDVGVYYCGQGTQVPYTFGQGTKLEIKRTVAAPSVFIFPPSDEQLKSGTASVVCLLNNFYPREAKVQWKVDNALQSGNSQESVTEQDSKDSTYSLSSTLTLSKADYEKHKVYACEVTHQGLSSPVTKSFNRGEC",1.34
4,"CE115HA000 N53W one-arm antibody (antibody, human IgG1, kappa, L234A L235A, N297A, name in Kabat numbering, one-arm antibody (one Fab)) heavy: QVQLVESGGGVVQPGRSLRLSCAASGFTFSNAWMHWVRQAPGKGLEWVAQIKAKSWNYATYYAESVKGRFTISRDDSKNSLYLQMNSLKTEDTAVYYCRYVHYGAYYGVDAWGQGTTVTVSSASTKGPSVFPLAPSSKSTSGGTAALGCLVKDYFPEPVTVSWNSGALTSGVHTFPAVLQSSGLYSLSSVVTVPSSSLGTQTYICNVNHKPSNTKVDKKVEPKSCDKTHTCPPCPAPEAAGGPSVFLFPPKPKDTLMISRTPEVTCVVVDVSHEDPEVKFNWYVDGVEVHNAKTKPREEQYASTYRVVSVLTVLHQDWLNGKEYKCKVSNKALPAPIEKTISKAKGQPREPQVYTLPPSRCELTKNQVSLSCAVKGFYPSDIAVEWESNGQPENNYKTTPPVLDSDGSFFLVSKLTVDKSRWQQGNVFSCSVMHEALHNHYTQKSLSLSPDYKDDDDK EPKSSDKTHTCPPCPAPELLGGPSVFLFPPKPKDTLMISRTPEVTCVVVDVSHEDPEVKFNWYVDGVEVHNAKTKPREEQYNSTYRVVSVLTVLHQDWLNGKEYKCKVSNKALPAPIEKTISKAKGQPREPQVCTLPPSRDELTKNQVSLWCLVKGFYPSDIAVEWESNGQPENNYKTTPPVLDSDGSFFLYSKLTVDKSRWQQGNVFSCSVMHEALHNRYTQKSLSLSP light: DIVMTQSPLSLPVTPGEPASISCRSSQSLVHSNRNTYLHWYQQKPGQAPRLLIYKVSNRFSGVPDRFSGSGSGTDFTLKISRVEAEDVGVYYCGQGTQVPYTFGQGTKLEIKRTVAAPSVFIFPPSDEQLKSGTASVVCLLNNFYPREAKVQWKVDNALQSGNSQESVTEQDSKDSTYSLSSTLTLSKADYEKHKVYACEVTHQGLSSPVTKSFNRGEC",0.88
5,"CE115HA000 N53S one-arm antibody (antibody, human IgG1, kappa, L234A L235A, N297A, name in Kabat numbering, one-arm antibody (one Fab)) heavy: QVQLVESGGGVVQPGRSLRLSCAASGFTFSNAWMHWVRQAPGKGLEWVAQIKAKSSNYATYYAESVKGRFTISRDDSKNSLYLQMNSLKTEDTAVYYCRYVHYGAYYGVDAWGQGTTVTVSSASTKGPSVFPLAPSSKSTSGGTAALGCLVKDYFPEPVTVSWNSGALTSGVHTFPAVLQSSGLYSLSSVVTVPSSSLGTQTYICNVNHKPSNTKVDKKVEPKSCDKTHTCPPCPAPEAAGGPSVFLFPPKPKDTLMISRTPEVTCVVVDVSHEDPEVKFNWYVDGVEVHNAKTKPREEQYASTYRVVSVLTVLHQDWLNGKEYKCKVSNKALPAPIEKTISKAKGQPREPQVYTLPPSRCELTKNQVSLSCAVKGFYPSDIAVEWESNGQPENNYKTTPPVLDSDGSFFLVSKLTVDKSRWQQGNVFSCSVMHEALHNHYTQKSLSLSPDYKDDDDK EPKSSDKTHTCPPCPAPELLGGPSVFLFPPKPKDTLMISRTPEVTCVVVDVSHEDPEVKFNWYVDGVEVHNAKTKPREEQYNSTYRVVSVLTVLHQDWLNGKEYKCKVSNKALPAPIEKTISKAKGQPREPQVCTLPPSRDELTKNQVSLWCLVKGFYPSDIAVEWESNGQPENNYKTTPPVLDSDGSFFLYSKLTVDKSRWQQGNVFSCSVMHEALHNRYTQKSLSLSP light: DIVMTQSPLSLPVTPGEPASISCRSSQSLVHSNRNTYLHWYQQKPGQAPRLLIYKVSNRFSGVPDRFSGSGSGTDFTLKISRVEAEDVGVYYCGQGTQVPYTFGQGTKLEIKRTVAAPSVFIFPPSDEQLKSGTASVVCLLNNFYPREAKVQWKVDNALQSGNSQESVTEQDSKDSTYSLSSTLTLSKADYEKHKVYACEVTHQGLSSPVTKSFNRGEC",0.83
6,"CE115HA000 N53Q one-arm antibody (antibody, human IgG1, kappa, L234A L235A, N297A, name in Kabat numbering, one-arm antibody (one Fab)) heavy: QVQLVESGGGVVQPGRSLRLSCAASGFTFSNAWMHWVRQAPGKGLEWVAQIKAKSQNYATYYAESVKGRFTISRDDSKNSLYLQMNSLKTEDTAVYYCRYVHYGAYYGVDAWGQGTTVTVSSASTKGPSVFPLAPSSKSTSGGTAALGCLVKDYFPEPVTVSWNSGALTSGVHTFPAVLQSSGLYSLSSVVTVPSSSLGTQTYICNVNHKPSNTKVDKKVEPKSCDKTHTCPPCPAPEAAGGPSVFLFPPKPKDTLMISRTPEVTCVVVDVSHEDPEVKFNWYVDGVEVHNAKTKPREEQYASTYRVVSVLTVLHQDWLNGKEYKCKVSNKALPAPIEKTISKAKGQPREPQVYTLPPSRCELTKNQVSLSCAVKGFYPSDIAVEWESNGQPENNYKTTPPVLDSDGSFFLVSKLTVDKSRWQQGNVFSCSVMHEALHNHYTQKSLSLSPDYKDDDDK EPKSSDKTHTCPPCPAPELLGGPSVFLFPPKPKDTLMISRTPEVTCVVVDVSHEDPEVKFNWYVDGVEVHNAKTKPREEQYNSTYRVVSVLTVLHQDWLNGKEYKCKVSNKALPAPIEKTISKAKGQPREPQVCTLPPSRDELTKNQVSLWCLVKGFYPSDIAVEWESNGQPENNYKTTPPVLDSDGSFFLYSKLTVDKSRWQQGNVFSCSVMHEALHNRYTQKSLSLSP light: DIVMTQSPLSLPVTPGEPASISCRSSQSLVHSNRNTYLHWYQQKPGQAPRLLIYKVSNRFSGVPDRFSGSGSGTDFTLKISRVEAEDVGVYYCGQGTQVPYTFGQGTKLEIKRTVAAPSVFIFPPSDEQLKSGTASVVCLLNNFYPREAKVQWKVDNALQSGNSQESVTEQDSKDSTYSLSSTLTLSKADYEKHKVYACEVTHQGLSSPVTKSFNRGEC",1.1
